Data reported in patent US9062100B2, “Anti-human TROP-2 antibody having anti-tumor activity in vivo” (LIVTECH, INC., dated 2015).
Where no end group is shown, it is not given here.

Columns and labels:
human TROP-2 (hTROP-2) [1] = target: T1, human TROP-2 (hTROP-2) (human); test: FACS on PK-59 cells
T1 chain: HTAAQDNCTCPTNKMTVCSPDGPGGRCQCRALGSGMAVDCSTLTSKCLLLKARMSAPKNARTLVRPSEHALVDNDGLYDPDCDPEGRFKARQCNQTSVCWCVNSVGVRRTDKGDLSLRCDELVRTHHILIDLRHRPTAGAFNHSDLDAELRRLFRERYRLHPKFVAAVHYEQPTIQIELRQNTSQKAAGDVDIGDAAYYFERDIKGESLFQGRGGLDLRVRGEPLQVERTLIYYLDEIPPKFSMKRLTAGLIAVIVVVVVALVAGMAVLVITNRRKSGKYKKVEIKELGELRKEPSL

human TROP-2 (hTROP-2) [2] = target: T1, human TROP-2 (hTROP-2); test: FACS on BxPC-3 cells
Table 8 peptide No. 1 = target: T2, Table 8 peptide No. 1 (human, not fully specified); test: PEPSCAN CLIPS peptide ELISA
T2 peptide: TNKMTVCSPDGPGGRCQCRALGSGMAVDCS

Table 8 peptide No. 2 = target: T3, Table 8 peptide No. 2 (human, not fully specified); test: PEPSCAN CLIPS peptide ELISA
T3 peptide: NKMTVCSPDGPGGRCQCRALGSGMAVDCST

Table 8 peptide No. 3 = target: T4, Table 8 peptide No. 3 (human, not fully specified); test: PEPSCAN CLIPS peptide ELISA
T4 peptide: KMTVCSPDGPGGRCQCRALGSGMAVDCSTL

Table 8 peptide No. 4 = target: T5, Table 8 peptide No. 4 (human, not fully specified); test: PEPSCAN CLIPS peptide ELISA
T5 peptide: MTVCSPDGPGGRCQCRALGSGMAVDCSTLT

Table 8 peptide No. 5 = target: T6, Table 8 peptide No. 5 (human, not fully specified); test: PEPSCAN CLIPS peptide ELISA
T6 peptide: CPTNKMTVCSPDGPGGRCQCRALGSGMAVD

Table 8 peptide No. 6 = target: T7, Table 8 peptide No. 6 (human, not fully specified); test: PEPSCAN CLIPS peptide ELISA
T7 peptide: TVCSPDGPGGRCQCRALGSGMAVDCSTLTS

Table 8 peptide No. 7 = target: T8, Table 8 peptide No. 7 (human, not fully specified); test: PEPSCAN CLIPS peptide ELISA
T8 peptide: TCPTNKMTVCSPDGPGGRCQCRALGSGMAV

Table 8 peptide No. 8 = target: T9, Table 8 peptide No. 8 (human, not fully specified); test: PEPSCAN CLIPS peptide ELISA
T9 peptide: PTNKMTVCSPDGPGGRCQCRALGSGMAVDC

Table 8 peptide No. 9 = target: T10, Table 8 peptide No. 9 (human, not fully specified); test: PEPSCAN CLIPS peptide ELISA
T10 peptide: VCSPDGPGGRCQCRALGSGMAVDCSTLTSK

Table 8 peptide No. 10 = target: T11, Table 8 peptide No. 10 (human, not fully specified); test: PEPSCAN CLIPS peptide ELISA
T11 peptide: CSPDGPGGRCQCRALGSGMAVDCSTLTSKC

Table 8 peptide No. 13 = target: T12, Table 8 peptide No. 13 (human, not fully specified); test: PEPSCAN CLIPS peptide ELISA
T12 peptide: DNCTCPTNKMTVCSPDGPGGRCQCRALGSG

Table 8 peptide No. 14 = target: T13, Table 8 peptide No. 14 (human, not fully specified); test: PEPSCAN CLIPS peptide ELISA
T13 peptide: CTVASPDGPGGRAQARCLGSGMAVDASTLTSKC

Table 8 peptide No. 15 = target: T14, Table 8 peptide No. 15 (human, not fully specified); test: PEPSCAN CLIPS peptide ELISA
T14 peptide: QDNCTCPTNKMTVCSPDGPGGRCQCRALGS

Table 8 peptide No. 16 = target: T15, Table 8 peptide No. 16 (human, not fully specified); test: PEPSCAN CLIPS peptide ELISA
T15 peptide: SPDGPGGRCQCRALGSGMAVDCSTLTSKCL

Table 8 peptide No. 17 = target: T16, Table 8 peptide No. 17 (human, not fully specified); test: PEPSCAN CLIPS peptide ELISA
T16 peptide: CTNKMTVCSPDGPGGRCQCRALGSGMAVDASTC

Table 8 peptide No. 18 = target: T17, Table 8 peptide No. 18 (human, not fully specified; cysteine pairing not given here); test: PEPSCAN CLIPS peptide ELISA
T17 peptide: TVCSPDGPGGRCQCR

Table 8 peptide No. 19 = target: T18, Table 8 peptide No. 19 (human, not fully specified); test: PEPSCAN CLIPS peptide ELISA
T18 peptide: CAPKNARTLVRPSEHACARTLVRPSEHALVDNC

Table 8 peptide No. 20 = target: T19, Table 8 peptide No. 20 (human, not fully specified); test: PEPSCAN CLIPS peptide ELISA
T19 peptide: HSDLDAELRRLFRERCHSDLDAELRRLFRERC

[3] = target: T20, recombinant protein of the extracellular region of hTROP-2 (human); test: ELISA of free antibody after equilibration with antigen in solution
T20 sequence: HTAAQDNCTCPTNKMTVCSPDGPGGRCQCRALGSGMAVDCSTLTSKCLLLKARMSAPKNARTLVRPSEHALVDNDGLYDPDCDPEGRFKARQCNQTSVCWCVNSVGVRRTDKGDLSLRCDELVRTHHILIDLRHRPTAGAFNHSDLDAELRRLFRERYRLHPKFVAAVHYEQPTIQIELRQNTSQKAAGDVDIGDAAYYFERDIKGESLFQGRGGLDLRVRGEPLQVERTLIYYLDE

- mean fluorescence intensity, times that with PE-labeled anti-mouse IgG only (human TROP-2 (hTROP-2) [1]): 89 times
- mean fluorescence intensity, times that with PE-labeled anti-mouse IgG only (human TROP-2 (hTROP-2) [2]): 90 times
- binding of K5-107 (Table 8 peptide No. 1): 2760
- binding of K5-107 (Table 8 peptide No. 2): 2760
- binding of K5-107 (Table 8 peptide No. 3): 2750
- binding of K5-107 (Table 8 peptide No. 4): 2730
- binding of K5-107 (Table 8 peptide No. 5): 2720
- binding of K5-107 (Table 8 peptide No. 6): 2720
- binding of K5-107 (Table 8 peptide No. 7): 2720
- binding of K5-107 (Table 8 peptide No. 8): 2690
- binding of K5-107 (Table 8 peptide No. 9): 2660
- binding of K5-107 (Table 8 peptide No. 10): 2660
- binding of K5-107 (Table 8 peptide No. 13): 1520
- binding of K5-107 (Table 8 peptide No. 14): 1120
- binding of K5-107 (Table 8 peptide No. 15): 874
- binding of K5-107 (Table 8 peptide No. 16): 561
- binding of K5-107 (Table 8 peptide No. 17): 380
- binding of K5-107 (Table 8 peptide No. 18): 312
- binding of K5-107 (Table 8 peptide No. 19): 284
- binding of K5-107 (Table 8 peptide No. 20): 272
- Kd [3]: 4.7 pM
B1: anti-hTROP-2 monoclonal antibody K5-107 (antibody, V domains shown)
VH: QVQLQQPGSELVRPGASVKLSCKASGYTFTSYWMHWVKQRHGQGLEWIGNIYPGGGYTNYDEKFKSKGTLTVDTSSSTAYMHLSSLTSEDSAVYYCTRSSVFDYWGQGTTLTVSS
VL: DILLTQSPAILSVSPGERVSFSCRASQNIGTSIHWFQQRTNGSPRLLIKYASESISGIPSRFSGSGSGTDFTLSINSVESEDIADYYCQQSNSWPFTFGSGTKLEIK
